Publication doi:10.1101/851261 (2019)
Positions of bridges follow the written chain, without caps; N, C: chain ends. No end group written: not given here.

T1: AjKissR2 (Apostichopus japonicus)
T1 chain: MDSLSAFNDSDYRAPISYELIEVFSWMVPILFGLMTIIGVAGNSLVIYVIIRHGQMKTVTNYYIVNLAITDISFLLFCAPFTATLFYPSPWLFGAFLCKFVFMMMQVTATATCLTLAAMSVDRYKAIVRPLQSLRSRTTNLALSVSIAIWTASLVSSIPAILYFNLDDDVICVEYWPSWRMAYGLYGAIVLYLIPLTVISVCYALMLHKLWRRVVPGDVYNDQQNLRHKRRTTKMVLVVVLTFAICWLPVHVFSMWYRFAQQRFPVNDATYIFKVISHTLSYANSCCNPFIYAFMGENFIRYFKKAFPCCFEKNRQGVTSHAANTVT

T2: AjKissR1 (Apostichopus japonicus)
T2 chain: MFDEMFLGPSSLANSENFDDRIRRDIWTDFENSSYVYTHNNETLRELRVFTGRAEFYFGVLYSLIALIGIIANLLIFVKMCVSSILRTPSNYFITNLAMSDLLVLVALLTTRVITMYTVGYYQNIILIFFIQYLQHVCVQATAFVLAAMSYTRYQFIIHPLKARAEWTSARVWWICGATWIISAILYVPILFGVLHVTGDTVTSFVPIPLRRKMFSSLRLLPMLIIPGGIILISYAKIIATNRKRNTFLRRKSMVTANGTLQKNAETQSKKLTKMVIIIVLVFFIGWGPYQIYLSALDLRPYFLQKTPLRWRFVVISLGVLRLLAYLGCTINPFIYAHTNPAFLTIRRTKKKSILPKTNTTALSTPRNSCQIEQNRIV


Assays:
AjKissR2 = molecular target: T1, AjKissR2; experiment: FACS; competition with 1.0 uM FITC-AjKiss1a
AjKissR1 = molecular target: T2, AjKissR1; experiment: FACS; competition with 1.0 uM FITC-AjKiss1a

Binder	IC50 (AjKissR2) [nM]	IC50 (AjKissR1) [nM]
SAVKNKNKSRARPPLLPF-NH2 [AjKiss1b]	1250	
AGSLDCLEASCEDVERRGRQPNRNAHYRTLPF-NH2 (disulfide 6-11 (inferred)) [AjKiss1a]		568
